The results in this text go back to article PMC10397247.

The target in one assay is T1, 4H462-bN.
T1 chain: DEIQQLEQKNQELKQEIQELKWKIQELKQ
The experiment in a line: two-hybrid library CCNG1.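 Further: natural log of median RNA to DNA barcode read ratio; higher means stronger binding.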

The next assay has as its target T2, 4H568-bN.
T2 chain: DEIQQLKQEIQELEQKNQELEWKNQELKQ
The experiment in a line: two-hybrid library CCNG1.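 Further: natural log of median RNA to DNA barcode read ratio; higher means stronger binding.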

The target of another assay is T3, 4H72-bN.
T3 chain: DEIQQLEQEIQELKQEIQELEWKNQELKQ
The experiment in a line: two-hybrid library CCNG1.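 Further: natural log of median RNA to DNA barcode read ratio; higher means stronger binding.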

For a further assay, the target named is T4, 4H717-bN.
T4 chain: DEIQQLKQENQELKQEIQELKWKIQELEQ
The experiment in a line: two-hybrid library CCNG1.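 Further: natural log of median RNA to DNA barcode read ratio; higher means stronger binding.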

Another assay deals with T5, 4H687-bN.
T5 chain: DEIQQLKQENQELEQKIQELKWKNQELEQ
The experiment in a line: two-hybrid library CCNG1.

For the next assay, the target named is T6, 4H754-bN.
T6 chain: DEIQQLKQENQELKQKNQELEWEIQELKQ
The experiment in a line: two-hybrid library CCNG1.

The target of a further assay is T7, 4H607-bN.
T7 chain: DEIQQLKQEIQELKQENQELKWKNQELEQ
The experiment in a line: two-hybrid library CCNG1.

In a further assay the target is T8, 4H883-bN.
T8 chain: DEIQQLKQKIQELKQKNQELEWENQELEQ
Description: two-hybrid library CCNG1.

In a further assay the target is T9, 4H3855-bN.
T9 chain: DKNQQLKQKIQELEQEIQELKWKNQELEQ
The experiment in a line: two-hybrid library CCNG1.

A further assay concerns the target T10, 4H953-bN.
T10 chain: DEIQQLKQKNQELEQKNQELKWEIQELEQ
Description: two-hybrid library CCNG1.

In the next assay the target is T11, 4H3843-bN.
T11 chain: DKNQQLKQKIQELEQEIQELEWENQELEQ
Description: two-hybrid library CCNG1.

A further assay has as its target T12, 4H967-bN.
T12 chain: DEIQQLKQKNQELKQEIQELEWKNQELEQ
The experiment in a line: two-hybrid library CCNG1.

Another assay deals with T13, 4H908-bN.
T13 chain: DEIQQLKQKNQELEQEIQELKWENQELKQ
The experiment in a line: two-hybrid library CCNG1.

The target of another assay is T14, 4H918-bN.
T14 chain: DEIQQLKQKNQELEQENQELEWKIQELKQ
The experiment in a line: two-hybrid library CCNG1.

Another assay addresses T15, 4H3782-bN.
T15 chain: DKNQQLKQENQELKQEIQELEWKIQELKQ
Description: two-hybrid library CCNG1.

Another assay addresses T16, 4H797-bN.
T16 chain: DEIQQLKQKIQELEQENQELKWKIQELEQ
Description: two-hybrid library CCNG1.

The target in a further assay is T17, 4H454-bN.
T17 chain: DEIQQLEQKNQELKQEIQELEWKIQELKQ
Description: two-hybrid library CCNG1.

The next assay concerns the target T18, 4H4001-bN.
T18 chain: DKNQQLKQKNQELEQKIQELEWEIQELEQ
The experiment in a line: two-hybrid library CCNG1.

A further assay deals with T19, 4H967-bH.
T19 chain: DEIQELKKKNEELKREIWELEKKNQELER
Description: two-hybrid library CCNG1.

A further assay has as its target T20, 4H462-bH.
T20 chain: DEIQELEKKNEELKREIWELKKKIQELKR
Description: two-hybrid library CCNG1.

For the next assay, the target named is T21, 4H797-bH.
T21 chain: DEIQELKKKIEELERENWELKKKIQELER
Description: two-hybrid library CCNG1.

The next assay has as its target T22, 4H3782-bH.
T22 chain: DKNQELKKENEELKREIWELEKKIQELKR
Description: two-hybrid library CCNG1.

Another assay has as its target T23, 4H3855-bH.
T23 chain: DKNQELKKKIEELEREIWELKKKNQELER
The experiment in a line: two-hybrid library CCNG1.

The target in a further assay is T24, 4H4001-bH.
T24 chain: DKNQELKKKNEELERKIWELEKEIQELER
Description: two-hybrid library CCNG1.

The next assay has as its target T25, 4H72-bH.
T25 chain: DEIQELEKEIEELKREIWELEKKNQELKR
Description: two-hybrid library CCNG1.

A further assay deals with T26, 4H883-bH.
T26 chain: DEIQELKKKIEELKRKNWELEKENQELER
Description: two-hybrid library CCNG1.

A further assay has as its target T27, 4H568-bH.
T27 chain: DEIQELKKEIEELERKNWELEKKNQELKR
The experiment in a line: two-hybrid library CCNG1.

The target in the next assay is T28, 4H754-bH.
T28 chain: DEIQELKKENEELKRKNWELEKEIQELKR
Description: two-hybrid library CCNG1.

A further assay addresses T29, 4H717-bH.
T29 chain: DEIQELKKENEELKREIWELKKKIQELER
The experiment in a line: two-hybrid library CCNG1.

For another assay, the target named is T30, 4H3843-bH.
T30 chain: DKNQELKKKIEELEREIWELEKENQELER
Description: two-hybrid library CCNG1.

The target in the next assay is T31, 4H908-bH.
T31 chain: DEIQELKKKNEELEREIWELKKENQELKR
Description: two-hybrid library CCNG1.

Another assay addresses T32, 4H687-bH.
T32 chain: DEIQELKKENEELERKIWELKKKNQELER
The experiment in a line: two-hybrid library CCNG1.

Another assay deals with T33, 4H454-bH.
T33 chain: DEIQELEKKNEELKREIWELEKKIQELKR
The experiment in a line: two-hybrid library CCNG1.

A further assay addresses T34, 4H918-bH.
T34 chain: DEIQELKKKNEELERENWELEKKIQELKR
The experiment in a line: two-hybrid library CCNG1.

In a further assay the target is T35, 4H607-bH.
T35 chain: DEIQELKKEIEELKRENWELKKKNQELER
The experiment in a line: two-hybrid library CCNG1.

In another assay the target is T36, 4H953-bH.
T36 chain: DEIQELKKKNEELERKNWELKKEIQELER
The experiment in a line: two-hybrid library CCNG1.

Another assay addresses T37, 4H87-AA.
T37 chain: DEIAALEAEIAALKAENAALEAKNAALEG
Description: two-hybrid library CCmax. The settings on record: mean of both orientations.

A further assay has as its target T38, 4H390-AA.
T38 chain: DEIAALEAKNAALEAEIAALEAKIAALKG
Description: two-hybrid library CCmax. The settings on record: mean of both orientations.

Another assay concerns the target T39, 4H510-AA.
T39 chain: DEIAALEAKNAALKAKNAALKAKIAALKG
Description: two-hybrid library CCmax. The settings on record: mean of both orientations.

Another assay has as its target T40, 4H3940-AA.
T40 chain: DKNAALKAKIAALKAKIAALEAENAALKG
Description: two-hybrid library CCmax. The settings on record: mean of both orientations.

A further assay addresses T41, 4H775-AA.
T41 chain: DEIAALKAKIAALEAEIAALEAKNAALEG
Description: two-hybrid library CCmax. The settings on record: mean of both orientations.

The next assay deals with T42, 4H3625-AA.
T42 chain: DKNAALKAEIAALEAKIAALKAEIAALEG
Description: two-hybrid library CCmax. The settings on record: mean of both orientations.

A further assay addresses T43, 4H3409-AA.
T43 chain: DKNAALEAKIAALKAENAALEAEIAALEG
The experiment in a line: two-hybrid library CCmax. The settings on record: mean of both orientations.

A further assay concerns the target T44, 4H3134-AA.
T44 chain: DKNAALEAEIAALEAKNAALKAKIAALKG
Description: two-hybrid library CCmax.

Another assay addresses T45, 4H816-AA.
T45 chain: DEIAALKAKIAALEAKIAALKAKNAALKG
Description: two-hybrid library CCmax. The settings on record: mean of both orientations.

A further assay has as its target T46, 4H3855-bA.
T46 chain: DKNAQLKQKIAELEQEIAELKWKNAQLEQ
Description: two-hybrid library CCNG1.

The next assay addresses T47, O8-bH.
T47 chain: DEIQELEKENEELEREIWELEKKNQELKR
Description: two-hybrid library CCNG1.

The target in a further assay is T48, O9-bH.
T48 chain: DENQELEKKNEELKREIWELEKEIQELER
The experiment in a line: two-hybrid library CCNG1.

Regarding DKNQQLKQENQELKQEIQELEWKIQELKQ [4H3782-bN], the interaction score in the assay with 4H462-bN is 0.194; with 4H568-bN, -0.456; with 4H72-bN it was -0.393; with 4H717-bN, -0.43; in the assay with 4H687-bN it was 0.28; with 4H754-bN, 0.109. For the same molecule, the interaction score is -0.461 in the assay with 4H607-bN; -1.27 with 4H883-bN; -1.08 in the assay with 4H3855-bN; -0.576 in the assay with 4H953-bN; 0.479 with 4H3843-bN; -0.314 with 4H967-bN. For the same molecule, the interaction score with 4H908-bN is 0.273; with 4H918-bN, -0.56; in the assay with 4H3782-bN it was -1.91; with 4H797-bN, 0.0484; with 4H454-bN, -0.771; with 4H4001-bN, 0.0598.
Take DKNQELKKENEELKREIWELEKKIQELKR [4H3782-bH]: the interaction score was -0.136 with 4H967-bH; 1.71 in the assay with 4H462-bH; -0.446 in the assay with 4H797-bH; 0.738 with 4H3782-bH; 0.0378 with 4H3855-bH; 0.67 in the assay with 4H4001-bH. The interaction score was 1.04 with 4H72-bH; -0.532 with 4H883-bH; 0.164 with 4H568-bH; 0.775 with 4H754-bH; 0.481 with 4H717-bH; 0.943 with 4H3843-bH. Moreover, the interaction score is -1.78 in the assay with 4H908-bH; 0.418 in the assay with 4H687-bH; 1.75 with 4H454-bH; -0.854 with 4H918-bH; 0.717 with 4H607-bH; -0.497 with 4H953-bH.
Take DKNAALEAEIAALEAKNAALKAKIAALKG [4H3134-AA]: the interaction score with 4H87-AA was -0.703; with 4H390-AA, -0.0241; with 4H510-AA it was -2.21; with 4H3940-AA, -1.19; in the assay with 4H775-AA, -0.634; in the assay with 4H3625-AA, -0.878. Further, the interaction score in the assay with 4H3409-AA is 1.96; with 4H3134-AA, -0.475; with 4H816-AA it was -0.115.
Regarding DKNQELKKKIEELEREIWELEKENQELER [4H3843-bH], the interaction score with 4H967-bH is -0.0277; in the assay with 4H462-bH, -0.193; with 4H797-bH, -0.437; with 4H3855-bA, 1.29; with 4H4001-bH it was -0.099; with 4H72-bH, -0.557. Also, the interaction score is -0.346 with 4H883-bH; -1.1 with 4H568-bH; -0.634 with 4H3843-bH; -0.585 with 4H687-bH; -2.64 in the assay with 4H918-bH; -2.13 with 4H607-bH. Besides, in the assay with 4H953-bH, the interaction score is -0.885.
Take DEIQELEKENEELEREIWELEKKNQELKR [O8-bH]: the interaction score was 0.991 with O8-bH and 0.486 with O9-bH.
